target: T1, HLA-B*08:01 (human); assay: UV peptide exchange, anti-b2m ELISA; exchange yield grade
T1 construct: Peptide-receptive MHC class I monomer in the UV-ligand exchange assay

| binding result | Binder |
| --- | --- |
| binds | NQKGLISL |
| binds | YAFRNQTL |
| binds | VANDRLSFL |

target: T2, HLA-A*24:02 (human); assay: as above
T2 construct: Peptide-receptive MHC class I monomer in the UV-ligand exchange assay

| Binder | binding result |
| --- | --- |
| SHSLPAFTL | binds |
| LYQTTIELF | binds |
| LHLNPGLSF | binds |
| AYIPFPPLI | binds |
| KYPTIICGF | binds |
| SFSLLLPYL | binds |
| IYFHLNNWTI | binds |
| VQSGVPSRF | binds |
| GRFWLPFNF | binds |

Continued, values first:

| binding result | Binder |
| --- | --- |
| binds | VFIPSVINL |
| binds | IYIPTNSIYKF |
| binds | LYIFTTRPF |
| binds | IFDLSDPRF |

target: T1, HLA-B*08:01; assay: allele assigned to HLA ligand eluted from tissue (IP, LC-MS)

| binding result | Binder |
| --- | --- |
| binds | TILAKQNVL |
| binds | TAMTTLMAF |
| binds | ILRTVLPSL |

From patent US20240358755A1 (IMMATICS BIOTECHNOLOGIES, published 2024)
